According to US20230391845A1, “GLP-1, GIP AND GLUCAGON RECEPTOR TRIPLE AGONISTS” (priority 2020, published 2023):
*1 amine or outer side, *2 acyl side, *3 side chain or, on linkers, in order; H or OH if unused. Where a SMILES comes first, the peptide text is derived from it. Where no end group is shown, it is not given here. Side-chain parts run from the residue outwards. [ ]: non-standard residue; d: D form. The star is where a group is joined. C20 diacid = O=C(O)CCCCCCCCCCCCCCCCCCC(=O)*; γGlu = O=C(O)[C@H](CCC(=O)[*:2])N[*:1]; εLys = N[C@@H](CCCCN[*:1])C(=O)[*:2]; Aib = CC(C)(N)C(=O)O

T1: human glucose-dependent insulinotropic polypeptide receptor (human, UniProt P48546 22-466)
T1 sequence (looked up): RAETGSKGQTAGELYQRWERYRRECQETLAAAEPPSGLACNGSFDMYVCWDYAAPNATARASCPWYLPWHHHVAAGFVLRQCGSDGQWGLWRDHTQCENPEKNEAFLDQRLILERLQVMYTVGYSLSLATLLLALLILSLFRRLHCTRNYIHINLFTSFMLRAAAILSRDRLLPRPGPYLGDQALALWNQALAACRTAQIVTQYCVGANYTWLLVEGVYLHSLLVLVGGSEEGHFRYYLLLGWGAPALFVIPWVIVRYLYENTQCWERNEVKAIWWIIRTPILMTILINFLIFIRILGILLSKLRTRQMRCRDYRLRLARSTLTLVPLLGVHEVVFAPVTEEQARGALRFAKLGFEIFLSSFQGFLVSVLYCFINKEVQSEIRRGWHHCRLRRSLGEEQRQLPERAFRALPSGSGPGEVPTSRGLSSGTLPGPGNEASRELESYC

T2: mouse GLP-1 receptor (mouse, UniProt O35659 22-463)
T2 sequence (looked up): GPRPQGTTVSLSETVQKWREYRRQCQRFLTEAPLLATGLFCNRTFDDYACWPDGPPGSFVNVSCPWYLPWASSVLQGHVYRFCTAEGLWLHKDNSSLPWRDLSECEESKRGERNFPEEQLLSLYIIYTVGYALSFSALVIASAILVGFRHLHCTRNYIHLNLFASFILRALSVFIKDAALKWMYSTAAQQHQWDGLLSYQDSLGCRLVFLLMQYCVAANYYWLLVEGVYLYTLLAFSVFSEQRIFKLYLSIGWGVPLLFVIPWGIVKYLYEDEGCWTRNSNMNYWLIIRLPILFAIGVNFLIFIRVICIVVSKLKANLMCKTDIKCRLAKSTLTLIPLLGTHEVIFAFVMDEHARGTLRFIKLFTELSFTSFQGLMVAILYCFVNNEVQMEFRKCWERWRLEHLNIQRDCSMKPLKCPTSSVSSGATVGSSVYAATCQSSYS

T3: mouse GIP receptor (mouse, UniProt Q0P543 19-460)
T3 sequence (looked up): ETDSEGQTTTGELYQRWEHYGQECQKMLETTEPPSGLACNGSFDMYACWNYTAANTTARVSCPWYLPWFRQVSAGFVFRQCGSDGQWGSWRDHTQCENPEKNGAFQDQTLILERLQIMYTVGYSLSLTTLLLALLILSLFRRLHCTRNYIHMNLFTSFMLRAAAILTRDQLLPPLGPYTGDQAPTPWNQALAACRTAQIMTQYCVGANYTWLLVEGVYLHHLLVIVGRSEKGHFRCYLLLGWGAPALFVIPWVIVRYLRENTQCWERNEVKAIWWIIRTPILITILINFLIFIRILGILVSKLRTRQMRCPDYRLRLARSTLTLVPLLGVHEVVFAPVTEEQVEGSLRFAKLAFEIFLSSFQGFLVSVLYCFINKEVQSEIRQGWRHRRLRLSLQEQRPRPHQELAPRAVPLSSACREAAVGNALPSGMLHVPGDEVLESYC

B1: Compound No. 33 (peptide)
peptide: H[Aib]HGTFTSDYSIYLEKKAA[Aib]EFVQWLLEGGPSSGAPPPS-NH2
modifications: not fully specified (residue 16); printed as H-Aib-HGTFTSDYSIYLE-K[(2S)-2-amino-6-[[(2S)-2-amino-6-[[(4S)-4-carboxy-4-(19-carboxynonadecanoylamino)butanoyl]amino]hexanoyl]amino]hexanoyl]-KAA-Aib-EFVQWLLEGGPSSGAPPPS-NH2
B2: Compound No. 30 (peptide)
peptide: H[Aib]HGTFTSDYSIYLEKKYA[Aib]EFVQWLLEGGPSSGAPPPS-NH2
modifications: not fully specified (residue 16); printed as H-Aib-HGTFTSDYSIYLE-K[(2S)-2-amino-6-[[(2S)-2-amino-6-[[(4S)-4-carboxy-4-(19-carboxynonadecanoylamino)butanoyl]amino]hexanoyl]amino]hexanoyl]-KYA-Aib-EFVQWLLEGGPSSGAPPPS-NH2

Key:
human GLP-1 receptor = target: T4, human GLP-1 receptor (Homo sapiens, UniProt P43220); test: In vitro functional potency (CRE luciferase; whole cells), human GLP-1R; assay type: cell-based
T4 construct: expressed in transfected cells; host or cells: BHK cells (parent line BHKTS13) containing CRE luciferase
T4 sequence (P43220 24-463): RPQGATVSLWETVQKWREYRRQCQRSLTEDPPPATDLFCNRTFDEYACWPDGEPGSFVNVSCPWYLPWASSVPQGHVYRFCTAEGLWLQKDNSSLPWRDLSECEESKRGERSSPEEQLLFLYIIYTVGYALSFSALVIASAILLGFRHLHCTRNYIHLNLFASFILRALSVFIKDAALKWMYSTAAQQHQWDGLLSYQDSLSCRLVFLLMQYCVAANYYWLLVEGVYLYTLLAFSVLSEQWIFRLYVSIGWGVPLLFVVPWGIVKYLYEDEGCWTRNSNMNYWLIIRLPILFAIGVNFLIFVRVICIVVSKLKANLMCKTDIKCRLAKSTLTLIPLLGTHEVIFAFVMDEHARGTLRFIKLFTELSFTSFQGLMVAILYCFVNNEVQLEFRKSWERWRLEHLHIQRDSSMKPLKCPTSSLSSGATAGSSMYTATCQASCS
Protocol: The purpose of this example is to test the functional activity, or potency, of the compounds in vitro at the human and mouse GLP-1, GIP, and Gcg receptors. The in vitro functional potency is the measure of target receptor activation in a whole cell assay.
In vitro functional potency was determined by measuring the response of the target receptor in a reporter gene assay in individual cell lines. The assay was performed in stably transfected BHK cell lines that expresses one of the following G-protein coupled receptors: human GLP-1 receptor, human GIP receptor, human Gcg receptor, mouse GLP-1 receptor, mouse GIP receptor, or mouse Gcg receptor; and where each cell line contains the DNA for the cAMP response element (CRE) coupled to a promoter and the gene for firefly luciferase (CRE luciferase). When the respective receptor is activated, it results in the production of cAMP, which in turn results in expression of the luciferase protein. When assay incubation is completed, luciferase substrate (luciferin) is added resulting in the enzymatic conversion of luciferin to oxyluciferin and producing bioluminescence. The luminescence is measured as the readout for the assay.
The cells lines used in these assays were BHK cells with BHKTS13 as a parent cell line. The cell lines were derived from a clone containing the CRE luciferase element and were established by further transfection with the respective receptor to obtain the relevant cell line.
The cells were cultured at 37° C. with 5% CO2 in Cell Culture Medium. They were aliquoted and stored in liquid nitrogen. The cells were kept in continuous culture and were seeded out the day before each assay.
GLP-1R and GcgR Cell Culture Medium consisted of DMEM medium with 10% FBS, 500 µg/mL G418, and 300 µg/mL hygromycin. GIPR Cell Culture Medium consisted of DMEM medium with 10% FBS, 400 µg/mL G418, and 300 µg/mL hygromycin. Assay Buffer consisted of DMEM w/o phenol red, 10 mM Hepes, 1× Glutamax, 1% ovalbumin, and 0.1% Pluronic F-68.
• 1) Cells were plated at 5000 cells/well and incubated overnight in the assay plate. • 2) Cells were washed once in DPBS. • 3) Stocks of the test compounds and reference compounds in concentrations ranging from 100-300 pM were diluted 1:150 in Assay Buffer.
The data from the microtiter plate reader was first regressed in an Excel in order to calculate the x-axis, log scale concentrations based on the individual test compound's stock concentration and the dilutions of the assay. […] The software performs a non-linear regression (log(agonist) vs response). A minimum of two replicates was measured for each sample. The reported values are averages of the replicates.

[1] = Pharmacokinetic study in minipigs, i.v. administration; parameters: species or system Göttingen minipigs; details: female, Göttingen, minipig, in vivo, iv; minipigs, i.v. administration, harmonic mean; read-out: Terminal half-life t1/2 (converted)
In short: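 Female Göttingen minipigs (7-14 months, 16-35 kg), fasted ~18 h pre-dose to 4 h post-dose, received i.v. injections of usually 1.5-2 nmol/kg via central venous catheter. Plasma sampled up to 14 days, assayed by ELISA or LCMS; terminal half-life (harmonic mean) from non-compartmental analysis.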

[2] = Pharmacodynamic study in DIO mice, daily s.c. dosing over 13 days (body weight, food intake); assay type: in vivo, C57BL/6J male mice
Protocol: (§1) The purpose of this example is to assess the in vivo effect of selected triple agonists on pharmacodynamic parameters in diet-induced obese (DIO) mice. The animals were treated once daily via subcutaneous injection with a liquid formulation of the triple agonist to be tested to assess effects on body weight, foot intake, and glucose tolerance.
(§2) C57BL/6J male mice were purchased from Jackson Laboratories at approximately 8 weeks of age. Mice were group housed and fed a high-fat, high-sugar diet from Research Diets (D12331). Mice were maintained on this diet for 12 weeks prior to initializing the pharmacology studies. Mice exceeding a measured body weight of 50 grams were considered diet-induced obese (DIO) and included in pharmacology studies. Mice were exposed to a controlled 12 h:12 h light:dark cycle at ambient room temperature (22° C.) with ab libitum access to food and water. Studies were approved by and performed according to the guidelines of the Institutional Animal Care and Use Committee of the University of Cincinnati.
(§3) All compounds in the study were formulated in the following buffer: 50 mM phosphate; 70 mM sodium chloride; 0.05% Tween-80, pH 7.4. Dosing solutions were formulated in glass vials and stored at 2-8° C. Dosing solutions were brought to room temperature before dosing and returned to 2-8° C. after dosing.
(§4) The animals were grouped to receive treatment as follows: Vehicle or GLP-1/GIP/Gcg receptor triple agonists as described herein, where vehicle is 50 mM phosphate, 70 mM sodium chloride; 0.05% (v/v) Tween-80, pH 7.4. The test compounds were dissolved in the vehicle, to stock concentrations of […], then diluted 50- to 200-fold in the vehicle to achieve the desired dosing solution concentrations. Animals were dosed subcutaneously once daily in the morning for each day of treatment with dosing solution at a volume of 2-5 μL per gram of body weight as necessary to achieve the desired dose (e.g. 0.3 nmol/kg, 1.0 nmol/kg, or 3.0 nmol/kg).
Body weight (BW) and food intake were measured immediately prior to dosing each day. The percent change in body was calculated individually for each mouse based on initial body weight prior to the first injection.

[3] = IPGTT (intraperitoneal glucose tolerance test) in DIO mice; assay type: in vivo, C57BL/6J male mice; details: 1.0 nmol/kg s.c. once daily, i.p. glucose 2 g/kg, baseline subtracted AUC
Protocol: as §1, §2, §3
as §4, with “DIO mice were distributed into groups (n=8 per group) such that statistical variations in the mean and standard deviations of fat mass and body weight were minimized between groups. The animals” for “The animals”
On the day of the glucose tolerance test, animals were fasted for 4 h. Food was removed and animals were transferred to fresh cages. Animals had access to water but not to food. Tail blood glucose levels were measured, and mice were injected (t=0) with an intraperitoneal (i.p.) glucose load of 2 g/kg (200 mg/ml glucose solution, dose volume 10 ml/kg). Tail blood glucose levels were measured at times 0, 15, 30, 60, 90, 120 minutes following the i.p. glucose load. Stratification of the animals during the IPGTT was such that for example two mice from group 1 are dosed followed by two mice from group 2, 3, 4, before the next two mice from group 1, 2, 3 etc. were handled. This was to allow for equal distribution of “time of day” throughout all groups.

[4] = target: human glucagon-like peptide 1 receptor (human, UniProt P43220 24-463); test: cell-based or functional assay
[5] = target: T1, human glucose-dependent insulinotropic …; test: cell-based or functional assay
human glucagon receptor = human glucagon receptor (human, UniProt P47871 26-477); test: cell-based or functional assay
Chain of human glucagon receptor (P47871 26-477): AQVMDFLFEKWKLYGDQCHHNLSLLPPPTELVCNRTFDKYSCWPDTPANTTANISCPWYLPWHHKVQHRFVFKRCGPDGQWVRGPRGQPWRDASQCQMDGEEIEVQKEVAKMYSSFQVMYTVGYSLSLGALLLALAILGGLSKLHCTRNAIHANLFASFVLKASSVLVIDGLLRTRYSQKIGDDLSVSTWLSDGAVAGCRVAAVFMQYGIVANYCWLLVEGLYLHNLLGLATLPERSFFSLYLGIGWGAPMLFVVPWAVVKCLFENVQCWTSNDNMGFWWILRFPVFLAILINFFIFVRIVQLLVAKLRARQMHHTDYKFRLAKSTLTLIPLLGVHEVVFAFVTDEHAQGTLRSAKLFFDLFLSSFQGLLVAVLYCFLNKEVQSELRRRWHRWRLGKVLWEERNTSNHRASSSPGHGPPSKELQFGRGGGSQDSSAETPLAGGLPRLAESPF

mouse GLP-1 receptor = target: T2, mouse GLP-1 receptor; test: cell-based or functional assay
mouse GIP receptor = target: T3, mouse GIP receptor; test: cell-based or functional assay
mouse Gcg receptor = mouse Gcg receptor (mouse, UniProt Q61606 27-485); test: cell-based or functional assay
Chain of mouse Gcg receptor (Q61606 27-485): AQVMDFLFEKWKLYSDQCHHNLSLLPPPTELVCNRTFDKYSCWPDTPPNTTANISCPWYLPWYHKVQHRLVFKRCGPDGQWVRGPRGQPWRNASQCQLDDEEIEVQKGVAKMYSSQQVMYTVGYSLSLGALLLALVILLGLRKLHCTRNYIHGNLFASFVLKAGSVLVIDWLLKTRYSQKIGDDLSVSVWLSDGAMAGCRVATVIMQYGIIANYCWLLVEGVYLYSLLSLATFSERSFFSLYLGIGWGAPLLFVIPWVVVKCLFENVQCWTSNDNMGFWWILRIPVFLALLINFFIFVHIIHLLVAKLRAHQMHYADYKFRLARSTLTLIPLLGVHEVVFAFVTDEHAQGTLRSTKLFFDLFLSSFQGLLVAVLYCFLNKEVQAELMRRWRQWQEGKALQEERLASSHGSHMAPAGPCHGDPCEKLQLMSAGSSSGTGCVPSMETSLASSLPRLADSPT

[6] = 1.0 nmol/kg s.c. once daily, Day 13
[7] = daily s.c. dosing over 13 days, compared to vehicle

Row | Molecule | EC50 (human GLP-1 receptor) | half-life [1] | Absolute BW (grams) Day 0 ([2]; 1.0 nmol/kg group, Day 0 (baseline)) | Absolute BW (grams) Day 13 [2, 6] | Change in BW (%) Day 13 [2, 6] | Cumulative food intake (grams) Day 13 ([2]; 1.0 nmol/kg s.c. once daily, mean ± SEM, n = 2) | reduction in body weight (in words) [2, 7] | reduction in food intake (in words) [2, 7] | iAUC, IPGTT (min*mg/dL) Day 14 [3] | hGLP-1R CRE Luc EC50 (pM) [4] | hGIPR CRE Luc EC50 (pM) [5] | hGcgR CRE Luc EC50 (pM) (human glucagon receptor) | mGLP-1R CRE Luc EC50 (pM) (mouse GLP-1 receptor) | mGIPR CRE Luc EC50 (pM) (mouse GIP receptor) | mGcgR CRE Luc EC50 (pM) (mouse Gcg receptor)
1 | CC(C)C[C@H](NC(=O)[C@H](CC(C)C)NC(=O)[C@H](Cc1c[nH]c2ccccc12)NC(=O)[C@H](CCC(N)=O)NC(=O)[C@@H](NC(=O)[C@H](Cc1ccccc1)NC(=O)[C@H](CCC(=O)O)NC(=O)C(C)(C)NC(=O)[C@H](C)NC(=O)[C@H](C)NC(=O)[C@H](CCC(N)=O)NC(=O)[C@H](CCCCNC(=O)[C@@H](N)CCCCNC(=O)[C@@H](N)CCCCNC(=O)CC[C@H](NC(=O)CCCCCCCCCCCCCCCCCCC(=O)O)C(=O)O)NC(=O)[C@H](CCC(=O)O)NC(=O)[C@H](CC(C)C)NC(=O)[C@H](Cc1ccc(O)cc1)NC(=O)[C@H](Cc1ccc(O)cc1)NC(=O)[C@H](CO)NC(=O)[C@H](Cc1ccc(O)cc1)NC(=O)[C@H](CC(=O)O)NC(=O)[C@H](CO)NC(=O)[C@@H](NC(=O)[C@H](Cc1ccccc1)NC(=O)[C@@H](NC(=O)CNC(=O)[C@H](Cc1c[nH]cn1)NC(=O)C(C)(C)NC(=O)[C@@H](N)Cc1c[nH]cn1)[C@@H](C)O)[C@@H](C)O)C(C)C)C(=O)N[C@@H](CCC(=O)O)C(=O)NCC(=O)NCC(=O)N1CCC[C@H]1C(=O)N[C@@H](CO)C(=O)N[C@@H](CO)C(=O)NCC(=O)N[C@@H](C)C(=O)N1CCC[C@H]1C(=O)N1CCC[C@H]1C(=O)N1CCC[C@H]1C(=O)N[C@@H](CO)C(N)=O [Compound No. 26] (H-H[Aib]HGTFTSDYSYYLEK([εLys-εLys-γGlu-C20 diacid])QAA[Aib]EFVQWLLEGGPSSGAPPPS-NH2; N-terminus assumed) | 3.1 pM | 80 h | 60.7 ± 1.9 grams | 51.6 ± 2.2 grams | −15.6 ± 0.9% | 20.1 ± 3.4 grams | superior reduction | superior reduction | 8789 ± 1521 mg·min/dL |  |  |  |  |  | 
2 | H[Aib]HGTFTSDYSIYLEKQAA[Aib]EFVQWLLEGGPSSGAPPPS-NH2 (not fully specified (residue 16)) [Compound No. 21] |  |  |  |  |  |  |  |  |  | 3 pM | 3.2 pM | 26.6 pM | 2.9 pM | 9.8 pM | 56.1 pM
3 | B1 |  |  |  |  |  |  |  |  |  | 3.3 pM | 7.3 pM | 13.7 pM | 2.2 pM | 10 pM | 8.1 pM
4 | B2 |  |  |  |  |  |  |  |  |  | 3.9 pM | 15.6 pM | 9.3 pM | 2.6 pM | 11.2 pM | 5.7 pM
